Laboratory results published in US20210309702A1.
Where two headings read alike, the source gives them in different places.

Experiments:
Assay in all cases: cell-based or functional assay
[1] = molecular target: superfolder GFP tagged VSV-G (VSV-G-sfGFP) (Vesicular Stomatitis Virus (Indiana strain)) (UniProt P03522)
[2] = molecular target: VSV-G fused with GFP11 at its C terminus (VSV-G-GFP11) (Vesicular Stomatitis Virus (Indiana strain)) (UniProt P03522)
[3] = molecular target: VSV-G fused with GFP11 at its C terminus (VSV-G-GFP11) (Vesicular Stomatitis Virus (Indiana strain)) (UniProt P03522); remark: listed apart in the source

In the case of “Cre recombinase fused with GFP1-10 (Cre-GFP1-10) (from UniProt P06956 1-343)”, the 293ColorSwitch cells switched to GFP [1] is reported as 2.6%, the 293ColorSwitch cells switched to GFP [2] is reported as 66.9% and the 293ColorSwitch cells switched to GFP [3] is reported as > 80%.
